B1: LIM and senescent cell antigen-like-containing domain protein 2, residues 13 to 71; numbered along this chain, Q7Z4I7 (parent)
chain: AVCQRCQARFSPAERIVNSNGELYHEHCFVCAQCFRPFPEGLFYEFEGRKYCEHDFQML

Among the data in the Human Domainome abundance scans (Beltran et al. 2025) are abundance fitness values, retold here.

± gives the uncertainty stated by the source.

The variants in the data set derive from B1. Briefly: abundance fitness (aPCA) (normalised: wild type 0, dead -1); higher = more abundant; growth selection in yeast, the domain comes from the species named. The note with it: Homo sapiens.
For the variant AVCQRCQARFSQAERIVNSNGELYHEHCFVCAQCFRPFPEGLFYEFEGRKYCEHDFQML [P12Q], the abundance fitness was -0.126 ± 0.09.

Regarding AVCQRCQARFSRAERIVNSNGELYHEHCFVCAQCFRPFPEGLFYEFEGRKYCEHDFQML [P12R], the abundance fitness is -0.212 ± 0.069.

Regarding AVCQRCQARFSSAERIVNSNGELYHEHCFVCAQCFRPFPEGLFYEFEGRKYCEHDFQML [P12S], the abundance fitness is 0.014 ± 0.061.

On to AVCQRCQARFSHAERIVNSNGELYHEHCFVCAQCFRPFPEGLFYEFEGRKYCEHDFQML [P12H], for which the abundance fitness came to 0.186 ± 0.22.

On to AVCQRCQARFSMAERIVNSNGELYHEHCFVCAQCFRPFPEGLFYEFEGRKYCEHDFQML [P12M], for which the abundance fitness was 0.014 ± 0.09.

As to AVCQRCQARFSGAERIVNSNGELYHEHCFVCAQCFRPFPEGLFYEFEGRKYCEHDFQML [P12G], the abundance fitness was -0.047 ± 0.064.

With AVCQRCQARFSIAERIVNSNGELYHEHCFVCAQCFRPFPEGLFYEFEGRKYCEHDFQML [P12I], the abundance fitness is 0.045 ± 0.081.

Regarding AVCQRCQARFSLAERIVNSNGELYHEHCFVCAQCFRPFPEGLFYEFEGRKYCEHDFQML [P12L], the abundance fitness was -0.059 ± 0.055.

For the variant AVCQRCQARFSYAERIVNSNGELYHEHCFVCAQCFRPFPEGLFYEFEGRKYCEHDFQML [P12Y], the abundance fitness is -0.093 ± 0.23.

Take AVCQRCQARFSEAERIVNSNGELYHEHCFVCAQCFRPFPEGLFYEFEGRKYCEHDFQML [P12E]: the abundance fitness came to 0.035 ± 0.12.

For the variant AVCQRCQARFSFAERIVNSNGELYHEHCFVCAQCFRPFPEGLFYEFEGRKYCEHDFQML [P12F], the abundance fitness was -0.036 ± 0.13.

On to AVCQRCQARFSAAERIVNSNGELYHEHCFVCAQCFRPFPEGLFYEFEGRKYCEHDFQML [P12A], for which the abundance fitness is 0.067 ± 0.063.

AVCQRCQARFSDAERIVNSNGELYHEHCFVCAQCFRPFPEGLFYEFEGRKYCEHDFQML [P12D]: the abundance fitness was 0.145 ± 0.22.

For the variant AVCQRCQARFSNAERIVNSNGELYHEHCFVCAQCFRPFPEGLFYEFEGRKYCEHDFQML [P12N], the abundance fitness was -0.109 ± 0.49.

As for AVCQRCQARFSCAERIVNSNGELYHEHCFVCAQCFRPFPEGLFYEFEGRKYCEHDFQML [P12C], the abundance fitness turned out to be 0.188 ± 0.096.

As for AVCQRCQARFSTAERIVNSNGELYHEHCFVCAQCFRPFPEGLFYEFEGRKYCEHDFQML [P12T], the abundance fitness came to 0.003 ± 0.075.

For the variant AVCQRCQWRFSPAERIVNSNGELYHEHCFVCAQCFRPFPEGLFYEFEGRKYCEHDFQML [A8W], the abundance fitness was 0.109 ± 0.051.

Turning to AVCQRCQARFSPHERIVNSNGELYHEHCFVCAQCFRPFPEGLFYEFEGRKYCEHDFQML [A13H], the abundance fitness turned out to be 0.017 ± 0.13.

In the case of AVCQRCQARFSPMERIVNSNGELYHEHCFVCAQCFRPFPEGLFYEFEGRKYCEHDFQML [A13M], the abundance fitness was -0.22 ± 0.1.

For AVCQRCQARFSPWERIVNSNGELYHEHCFVCAQCFRPFPEGLFYEFEGRKYCEHDFQML [A13W], the abundance fitness is -0.372 ± 0.083.

On to AVCQRCQARFSPQERIVNSNGELYHEHCFVCAQCFRPFPEGLFYEFEGRKYCEHDFQML [A13Q], for which the abundance fitness is -0.245 ± 0.11.

In the case of AVCQRCQARFSPCERIVNSNGELYHEHCFVCAQCFRPFPEGLFYEFEGRKYCEHDFQML [A13C], the abundance fitness is -0.176 ± 0.071.

AVCQRCQARFSPDERIVNSNGELYHEHCFVCAQCFRPFPEGLFYEFEGRKYCEHDFQML [A13D]: the abundance fitness came out at 0.142 ± 0.16.

Take AVCQRCQARFSPTERIVNSNGELYHEHCFVCAQCFRPFPEGLFYEFEGRKYCEHDFQML [A13T]: the abundance fitness turned out to be 0.035 ± 0.071.

Regarding AVCQRCQARFSPKERIVNSNGELYHEHCFVCAQCFRPFPEGLFYEFEGRKYCEHDFQML [A13K], the abundance fitness came to 0.053 ± 0.072.

Regarding AVCQRCQARFSPRERIVNSNGELYHEHCFVCAQCFRPFPEGLFYEFEGRKYCEHDFQML [A13R], the abundance fitness is -0.211 ± 0.059.

Turning to AVCQRCQARFSPFERIVNSNGELYHEHCFVCAQCFRPFPEGLFYEFEGRKYCEHDFQML [A13F], the abundance fitness is -0.781 ± 0.15.

With AVCQRCQARFSPVERIVNSNGELYHEHCFVCAQCFRPFPEGLFYEFEGRKYCEHDFQML [A13V], the abundance fitness was -0.327 ± 0.081.

As for AVCQRCQARFSPNERIVNSNGELYHEHCFVCAQCFRPFPEGLFYEFEGRKYCEHDFQML [A13N], the abundance fitness was 0.186 ± 0.13.

In the case of AVCQRCQARFSPIERIVNSNGELYHEHCFVCAQCFRPFPEGLFYEFEGRKYCEHDFQML [A13I], the abundance fitness is -0.581 ± 0.17.

For the variant AVCQRCQARFSPGERIVNSNGELYHEHCFVCAQCFRPFPEGLFYEFEGRKYCEHDFQML [A13G], the abundance fitness is -0.182 ± 0.083.

Turning to AVCQRCQARFSPLERIVNSNGELYHEHCFVCAQCFRPFPEGLFYEFEGRKYCEHDFQML [A13L], the abundance fitness is -0.039 ± 0.055.

As to AVCQRCQARFSPYERIVNSNGELYHEHCFVCAQCFRPFPEGLFYEFEGRKYCEHDFQML [A13Y], the abundance fitness was -0.207 ± 0.12.

For AVCQRCQARFSPPERIVNSNGELYHEHCFVCAQCFRPFPEGLFYEFEGRKYCEHDFQML [A13P], the abundance fitness was -0.076 ± 0.078.

Consider AVCQRCQARFSPEERIVNSNGELYHEHCFVCAQCFRPFPEGLFYEFEGRKYCEHDFQML [A13E], for which the abundance fitness stood at 0.078 ± 0.096.

For the variant AVCQRCQACFSPAERIVNSNGELYHEHCFVCAQCFRPFPEGLFYEFEGRKYCEHDFQML [R9C], the abundance fitness is -0.164 ± 0.11.

On to AVCQRCQAHFSPAERIVNSNGELYHEHCFVCAQCFRPFPEGLFYEFEGRKYCEHDFQML [R9H], for which the abundance fitness was -0.047 ± 0.096.

For AVCQRCQAQFSPAERIVNSNGELYHEHCFVCAQCFRPFPEGLFYEFEGRKYCEHDFQML [R9Q], the abundance fitness amounted to 0.039 ± 0.089.

As to AVCQRCQAEFSPAERIVNSNGELYHEHCFVCAQCFRPFPEGLFYEFEGRKYCEHDFQML [R9E], the abundance fitness is -0.084 ± 0.089.

For AVCQRCQAIFSPAERIVNSNGELYHEHCFVCAQCFRPFPEGLFYEFEGRKYCEHDFQML [R9I], the abundance fitness was -0.039 ± 0.14.

As for AVCQRCQAGFSPAERIVNSNGELYHEHCFVCAQCFRPFPEGLFYEFEGRKYCEHDFQML [R9G], the abundance fitness was found to be 0.01 ± 0.07.

On to AVCQRCQAFFSPAERIVNSNGELYHEHCFVCAQCFRPFPEGLFYEFEGRKYCEHDFQML [R9F], for which the abundance fitness is -0.408 ± 0.12.

Consider AVCQRCQAPFSPAERIVNSNGELYHEHCFVCAQCFRPFPEGLFYEFEGRKYCEHDFQML [R9P], for which the abundance fitness stood at 0.051 ± 0.068.

As to AVCQRCQATFSPAERIVNSNGELYHEHCFVCAQCFRPFPEGLFYEFEGRKYCEHDFQML [R9T], the abundance fitness is -0.019 ± 0.068.

Regarding AVCQRCQASFSPAERIVNSNGELYHEHCFVCAQCFRPFPEGLFYEFEGRKYCEHDFQML [R9S], the abundance fitness was 0.212 ± 0.066.
